Legend:
[1] = tested on: control peptide KEATSTFTNIT FRGTCOOH
[2] = tested on: recombinant β3 integrin cytoplasmic tail-GST fusion protein
[3] = tested on: β3 integrin cytoplasmic peptide specific for tyrosine-759 (KEATSTFTNITYpRGT-COOH)
[4] = tested on: control peptide DTANNPLF KEATSTFT-COOH
[5] = tested on: β3 integrin cytoplasmic peptide specific for tyrosine-747 (DTANNPLYpKEATSTFT-COOH)

| Substance | [γ-32P] ATP incorporation, in vitro kinase assay (control peptide, lower incorporation) [1] | [γ-32P] ATP incorporation, in vitro kinase assay [2] | [γ-32P] ATP incorporation, in vitro kinase assay [3] | [γ-32P] ATP incorporation, in vitro kinase assay (control peptide, lower incorporation) [4] | [γ-32P] ATP incorporation, in vitro kinase assay [5] |
| --- | --- | --- | --- | --- | --- |
| c-Src of HUVEC (endogenous) | a dramatic increase in [γ-^32P] ATP incorporation was observed as compared to control peptides devoid of tyrosine motifs | the immunoprecipitated c-Src can phosphorylate β3 integrin cytoplasmic domain | In the presence of Tyr-747/Tyr-759 β3 integrin cytoplasmic peptide, a dramatic increase in [γ-^32P] ATP incorporation was observed as compared to control peptides devoid of tyrosine motifs | a dramatic increase in [γ-^32P] ATP incorporation was observed as compared to control peptides devoid of tyrosine motifs | In the presence of Tyr-747/Tyr-759 β3 integrin cytoplasmic peptide, a dramatic increase in [γ-^32P] ATP incorporation was observed as compared to control peptides devoid of tyrosine motifs |
| purified, recombinant full-length c-Src |  | Recombinant purified c-Src also phosphorylated the β3 integrin whereas no phosphorylation was observed without the substrate |  |  |  |
